Data set [1] has as its target T1, STAT2 (133–748) of the purified STAT1–STAT2 heterodimer (mouse, UniProt Q9WVL2 133-748).
T1 sequence (looked up): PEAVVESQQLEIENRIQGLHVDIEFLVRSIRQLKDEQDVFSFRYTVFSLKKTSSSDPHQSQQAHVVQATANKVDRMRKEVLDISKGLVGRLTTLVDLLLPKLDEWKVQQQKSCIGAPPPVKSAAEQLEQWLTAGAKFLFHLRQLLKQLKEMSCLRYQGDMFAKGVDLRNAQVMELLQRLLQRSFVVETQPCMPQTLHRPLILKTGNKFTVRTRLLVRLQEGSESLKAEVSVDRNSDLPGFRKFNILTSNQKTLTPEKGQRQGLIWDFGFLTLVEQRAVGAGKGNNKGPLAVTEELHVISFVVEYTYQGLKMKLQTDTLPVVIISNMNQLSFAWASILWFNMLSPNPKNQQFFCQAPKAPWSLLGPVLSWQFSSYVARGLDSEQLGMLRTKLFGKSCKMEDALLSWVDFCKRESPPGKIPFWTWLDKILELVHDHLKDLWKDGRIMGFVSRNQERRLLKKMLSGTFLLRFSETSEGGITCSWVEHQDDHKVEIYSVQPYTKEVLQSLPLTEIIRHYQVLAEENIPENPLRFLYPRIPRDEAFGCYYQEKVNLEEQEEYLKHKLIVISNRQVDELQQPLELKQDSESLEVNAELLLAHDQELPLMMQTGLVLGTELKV
The experiment in a line: tandem affinity co-purification.

In a further data set the target is T2, IRF9–IAD_(182–385) (mouse, UniProt Q61179 182-385).
T2 sequence (looked up): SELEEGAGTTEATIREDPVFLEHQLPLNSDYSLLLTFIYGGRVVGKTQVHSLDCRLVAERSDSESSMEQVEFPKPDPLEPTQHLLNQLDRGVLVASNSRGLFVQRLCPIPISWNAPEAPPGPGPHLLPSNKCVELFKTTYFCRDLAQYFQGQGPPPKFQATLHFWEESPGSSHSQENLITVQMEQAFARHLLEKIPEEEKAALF
Description: SEC.

The target in the next data set is T3, STAT2_(133–679) (mouse, UniProt Q9WVL2 133-679).
T3 sequence (looked up): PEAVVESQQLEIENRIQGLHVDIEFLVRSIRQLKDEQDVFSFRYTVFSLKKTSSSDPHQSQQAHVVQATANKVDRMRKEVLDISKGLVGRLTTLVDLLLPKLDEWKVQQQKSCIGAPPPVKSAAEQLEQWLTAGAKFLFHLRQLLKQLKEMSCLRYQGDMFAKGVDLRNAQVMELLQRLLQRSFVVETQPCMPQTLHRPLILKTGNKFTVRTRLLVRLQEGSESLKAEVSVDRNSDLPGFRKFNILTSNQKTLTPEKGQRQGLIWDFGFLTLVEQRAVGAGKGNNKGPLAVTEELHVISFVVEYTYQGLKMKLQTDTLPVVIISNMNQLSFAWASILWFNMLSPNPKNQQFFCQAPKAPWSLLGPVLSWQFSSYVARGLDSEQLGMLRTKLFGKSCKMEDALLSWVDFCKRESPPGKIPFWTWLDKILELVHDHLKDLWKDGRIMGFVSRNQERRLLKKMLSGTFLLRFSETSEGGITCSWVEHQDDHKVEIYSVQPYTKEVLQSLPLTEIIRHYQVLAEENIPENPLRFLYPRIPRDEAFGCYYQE
The experiment in a line: SEC-MALS. In general terms: In gel filtration, larger molecules generally elute earlier.

In another data set the target is T4, IRF9-DBD (Mus musculus, UniProt Q61179 1-116).
T4 sequence: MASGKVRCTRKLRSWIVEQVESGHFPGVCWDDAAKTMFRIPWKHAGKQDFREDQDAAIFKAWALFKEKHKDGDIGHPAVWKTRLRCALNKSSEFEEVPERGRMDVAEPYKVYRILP
Description: EMSA. In general terms: Mobility shift assays separate free from complexed probe on a gel.

Broadly, the stoichiometry N is a count of units in the complex or per binding partner.

B1: STAT1 (136–713) of the purified STAT1–STAT2 heterodimer (domain or fragment, mouse, UniProt P42225 136-713, looked up)
chain: LDKQKELDSKVRNVKDQVMCIEQEIKTLEELQDEYDFKCKTSQNREGEANGVAKSDQKQEQLLLHKMFLMLDNKRKEIIHKIRELLNSIELTQNTLINDELVEWKRRQQSACIGGPPNACLDQLQTWFTIVAETLQQIRQQLKKLEELEQKFTYEPDPITKNKQVLSDRTFLLFQQLIQSSFVVERQPCMPTHPQRPLVLKTGVQFTVKSRLLVKLQESNLLTKVKCHFDKDVNEKNTVKGFRKFNILGTHTKVMNMEESTNGSLAAELRHLQLKEQKNAGNRTNEGPLIVTEELHSLSFETQLCQPGLVIDLETTSLPVVVISNVSQLPSGWASILWYNMLVTEPRNLSFFLNPPCAWWSQLSEVLSWQFSSVTKRGLNADQLSMLGEKLLGPNAGPDGLIPWTRFCKENINDKNFSFWPWIDTILELIKNDLLCLWNDGCIMGFISKERERALLKDQQPGTFLLRFSESSREGAITFTWVERSQNGGEPDFHAVEPYTKKELSAVTFPDIIRNYKVMAAENIPENPLKYLYPNIDKDHAFGKYYSRPKEAPEPMELDDPKRTGYIKTELISVSEVH
B1: the binding result in data set [1] was “binds”.

B2: STAT2_(133–315) (domain or fragment, mouse, UniProt Q9WVL2 133-315, looked up)
chain: PEAVVESQQLEIENRIQGLHVDIEFLVRSIRQLKDEQDVFSFRYTVFSLKKTSSSDPHQSQQAHVVQATANKVDRMRKEVLDISKGLVGRLTTLVDLLLPKLDEWKVQQQKSCIGAPPPVKSAAEQLEQWLTAGAKFLFHLRQLLKQLKEMSCLRYQGDMFAKGVDLRNAQVMELLQRLLQRS
Turning to B2, the binding result with IRF9–IAD_(182–385) is on record as “binds”.

B3: IRF9_(182–399) (domain or fragment, mouse, UniProt Q61179 182-399, looked up)
chain: SELEEGAGTTEATIREDPVFLEHQLPLNSDYSLLLTFIYGGRVVGKTQVHSLDCRLVAERSDSESSMEQVEFPKPDPLEPTQHLLNQLDRGVLVASNSRGLFVQRLCPIPISWNAPEAPPGPGPHLLPSNKCVELFKTTYFCRDLAQYFQGQGPPPKFQATLHFWEESPGSSHSQENLITVQMEQAFARHLLEKIPEEEKAALFLLQHTEQSPSALGH
B3: in the data set with STAT2_(133–679), the “stoichiometry N” value came to 1.

B4: ADAR ISRE 29 bp (dsDNA)
DNA 1: TAAGCCTTTTCAAGGAAACGAAAGTGAAC
DNA 2: AGTTCACTTTCGTTTCCTTGAAAAGGCTT
On to B4, for which the binding result with IRF9-DBD is “binds”.

These data come from publication PMC5789952 (Proceedings of the National Academy of Sciences of the …, 2017).
